Patent publication US11447566B2, “Anti-tissue factor antibodies, antibody-drug conjugates, and related methods” (Iconic Therapeutics, Inc., priority 2018, dated 2022)

Assays:
[1] = target: T1, human TF on MDA-MB-231 cells (25A3-Alexa488 binding) (Homo sapiens, UniProt P13726); assay: Antibody competition assay with 25A3; settings: pre-incubation with unlabeled competitor antibody
T1 construct: TF-positive MDA-MB-231 cells (ATCC, Manassas, Va., USA); host or cells: MDA-MB-231
Experimental: Alexa Fluor antibodies were generated using Alexa Fluor 488 5-sulfo-[…] esters (ThermoFisher Scientific) following manufacturer's protocol. Excess Alexa Fluor dye was removed from the antibody dye conjugate preparations by gel filtration (ThermoFisher Scientific).
After another 1 hr incubation on ice, cells were washed, stained with a viability dye, and analyzed by flow cytometry. The Alexa488 fluorescence data from viable cells was summarized using median fluorescence intensity.

[2] = target: T2, human TF on MDA-MB-231 cells (FVII-Fc binding) (Homo sapiens, UniProt P13726); assay: FVIIa competition assay; settings: highest concentration of antibody; FIG. 14B
T2 construct: TF-positive MDA-MB-231 cells (ATCC, Manassas, Va., USA); host or cells: MDA-MB-231
T2 sequence (P13726 33-295): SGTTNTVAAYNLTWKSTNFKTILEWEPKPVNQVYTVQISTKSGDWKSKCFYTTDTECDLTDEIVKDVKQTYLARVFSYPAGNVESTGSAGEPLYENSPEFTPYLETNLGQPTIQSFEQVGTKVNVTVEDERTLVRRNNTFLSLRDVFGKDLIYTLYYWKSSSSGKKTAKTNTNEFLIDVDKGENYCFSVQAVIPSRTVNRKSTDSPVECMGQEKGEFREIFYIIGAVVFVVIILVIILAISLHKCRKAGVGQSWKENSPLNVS
Experimental: To evaluate competition between FVIIa and the human antibodies against TF, TF-positive MDA-MB-231 cells (ATCC, Manassas, Va., USA) were first incubated for 1 hr on ice with a titration of the human antibodies against TF. Subsequently, a final concentration of 20 nM of FVII-Fc conjugated to Alexa488 was added to the antibody cell mixture. After another 1 hr incubation on ice, cells were washed, stained with a viability dye, and analyzed by flow cytometry. The Alexa488 fluorescence data from viable cells was summarized using median fluorescence intensity.
Subsequently, FVII-Fc conjugated to Alexa488 was added to the antibody-cell mixture at a final concentration of 20 nM. After another 1 hr incubation on ice, cells were washed, stained with a viability dye, and analyzed by flow cytometry. The Alexa488 fluorescence data from viable cells was summarized using median fluorescence intensity (MFI).

[3] = target: T3, human, rat and chimeric human-rat TF constructs expressed on HEK293 cells (Homo sapiens, UniProt P13726, D212E/E215V/N216S/S220F/V221A); assay: Live cell staining assay on chimeric TF constructs (epitope binning); type: cell-based; settings: construct h175-189_r (5), human segment replaced by rat segment
T3 construct: expressed in transfected cells; host or cells: HEK293
T3 sequence (P13726 33-295 D212E/E215V/N216S/S220F/V221A): as the sequence (P13726 33-295) above, with D180E, E183V, N184S, S188F, V189A counted along it
Experimental: (§1) To establish binding of the anti-human TF antibodies to the various TF constructs, HEK293 cells were transfected with a DNA plasmid that co-expresses the TF construct and a green fluorescent protein marker. […] Two days after transfection, cells were collected from the tissue culture plate, stained with 15 μg/ml of the indicated anti-TF antibody, washed, stained with anti-human IgG-Fc Alexa Fluor 647 polyclonal antibody, washed, and stained with the viability dye 4′,6-Diamidino-2-Phenylindole, Dihydrochloride. Upon acquisition of 80,000 live events on a flow cytometer, live cells marked with the fluorescent marker were analyzed for the degree of staining by the anti-TF antibody. […] As used herein, the term “live cell staining assay” refers to the antibody binding assay used in this example.
(§2) When “Percentage antibody binding to TF construct relative to hTF” in Tables 51 and 52 was less than 50%, the antibody was considered a non-binder (0) in Tables 53 and 54.
(§3) Each antibody was assigned to an epitope bin in Table 55 based on the combination of unbound constructs from Table 53.

[4] = target: T4, human, rat and chimeric human-rat TF constructs expressed on HEK293 cells (Homo sapiens, UniProt P13726, I184G/K181N/T186I/W190R/Y188T); assay: as above; type: cell-based; settings: construct h146-158_r (5), human segment replaced by rat segment
T4 construct: expressed in transfected cells; host or cells: HEK293
T4 sequence (P13726 33-295 K181N/I184G/T186I/Y188T/W190R): as the sequence (P13726 33-295) above, with K149N, I152G, T154I, Y156T, W158R counted along it
Experimental: as §1, §2, §3

[5] = target: T5, human, rat and chimeric human-rat TF constructs expressed on HEK293 cells (Rattus norvegicus, UniProt P42533, A222V/D193S/E213D/F221S/G171N/G185I/H204N/I187T/K169R/N182K/N201A/Q178D/R191W/R198K/S217N/T175S/T189Y/T196S/T202K/V216E); assay: as above; type: cell-based; settings: construct r141-194_h, rat amino acid segment replaced by human segment (20 amino acid changes)
T5 construct: expressed in transfected cells; host or cells: HEK293
Experimental: as §1, §2, §3

[6] = target: T6, human, rat and chimeric human-rat TF constructs expressed on HEK293 cells (Homo sapiens, UniProt P13726, D76N/F108L/F82T/G75R/K100N/K73R/L104E/Q101W/S79Y/T72D/Y83G); assay: as above; type: cell-based; settings: construct h39-77_r (11), human segment replaced by rat segment
T6 construct: expressed in transfected cells; host or cells: HEK293
T6 sequence (P13726 33-295 T72D/K73R/G75R/D76N/S79Y/F82T/Y83G/K100N/Q101W/L104E/F108L): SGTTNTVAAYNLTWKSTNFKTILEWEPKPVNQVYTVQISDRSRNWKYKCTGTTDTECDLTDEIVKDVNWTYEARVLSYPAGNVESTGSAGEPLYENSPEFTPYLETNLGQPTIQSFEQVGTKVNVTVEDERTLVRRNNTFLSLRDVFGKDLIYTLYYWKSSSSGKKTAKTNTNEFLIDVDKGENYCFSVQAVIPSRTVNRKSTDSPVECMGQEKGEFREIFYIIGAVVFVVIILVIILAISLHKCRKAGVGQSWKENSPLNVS
Experimental: as §1, §2, §3

[7] = target: T7, human, rat and chimeric human-rat TF constructs expressed on HEK293 cells (Homo sapiens, UniProt P13726, K100N); assay: as above; type: cell-based; settings: construct hTF_K68N
T7 construct: expressed in transfected cells; host or cells: HEK293
T7 sequence (P13726 33-295 K100N): as the sequence (P13726 33-295) above, with K68N counted along it
Experimental: as §1, §2, §3

[8] = target: T8, human, rat and chimeric human-rat TF constructs expressed on HEK293 cells (Homo sapiens, UniProt P13726, A112W/A121G/E116T/E127T/E131K/E137D/G113R/G119T/G122E/L125P/L136R/N139K/P130R/S117H/S120H/S129A/T118G/T133L/V115S/Y110V/Y126F); assay: as above; type: cell-based; settings: construct h78-107_r (21), human segment replaced by rat segment
T8 construct: expressed in transfected cells; host or cells: HEK293
T8 sequence (P13726 33-295 with the stated changes): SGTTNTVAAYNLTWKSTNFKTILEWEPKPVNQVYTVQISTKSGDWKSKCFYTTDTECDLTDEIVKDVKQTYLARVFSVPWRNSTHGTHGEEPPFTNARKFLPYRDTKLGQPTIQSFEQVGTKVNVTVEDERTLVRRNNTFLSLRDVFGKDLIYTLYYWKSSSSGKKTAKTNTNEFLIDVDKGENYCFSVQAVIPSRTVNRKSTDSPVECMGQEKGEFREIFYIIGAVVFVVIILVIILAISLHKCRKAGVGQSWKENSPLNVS
Experimental: as §1, §2, §3

[9] = target: T9, human, rat and chimeric human-rat TF constructs expressed on HEK293 cells (Homo sapiens, UniProt P13726); assay: as above; type: cell-based; settings: construct hTF
T9 construct: expressed in transfected cells; host or cells: HEK293
T9 sequence (P13726 33-295, change not shown): as the sequence (P13726 33-295) above
Experimental: as §1, §2, §3

[10] = target: T10, human, rat and chimeric human-rat TF constructs expressed on HEK293 cells (Homo sapiens, UniProt P13726, N170G/R168K); assay: as above; type: cell-based; settings: construct h133-139_r (2), human segment replaced by rat segment
T10 construct: expressed in transfected cells; host or cells: HEK293
T10 sequence (P13726 33-295 R168K/N170G): as the sequence (P13726 33-295) above, with R136K, N138G counted along it
Experimental: as §1, §2, §3

[11] = target: T11, human, rat and chimeric human-rat TF constructs expressed on HEK293 cells (Homo sapiens, UniProt P13726, E127T/E131K/E137D/L136R/N139K/P130R/S129A/T133L/Y126F); assay: as above; type: cell-based; settings: construct h94-107_r (9), human segment replaced by rat segment
T11 construct: expressed in transfected cells; host or cells: HEK293
T11 sequence (P13726 33-295 Y126F/E127T/S129A/P130R/E131K/T133L/L136R/E137D/N139K): as the sequence (P13726 33-295) above, with Y94F, E95T, S97A, P98R, E99K, T101L, L104R, E105D, N107K counted along it
Experimental: as §1, §2, §3

[12] = target: T12, human, rat and chimeric human-rat TF constructs expressed on HEK293 cells (Rattus norvegicus, UniProt P42533); assay: as above; type: cell-based; settings: construct rTF
T12 construct: expressed in transfected cells; host or cells: HEK293
Experimental: as §1, §2, §3

[13] = target: T13, human, rat and chimeric human-rat TF constructs expressed on HEK293 cells (Homo sapiens, UniProt P13726, D177Q/N170G/R168K/S174T); assay: as above; type: cell-based; settings: construct h133-145_r (4), human segment replaced by rat segment
T13 construct: expressed in transfected cells; host or cells: HEK293
T13 sequence (P13726 33-295 R168K/N170G/S174T/D177Q): as the sequence (P13726 33-295) above, with R136K, N138G, S142T, D145Q counted along it
Experimental: as §1, §2, §3

[14] = target: T14, human, rat and chimeric human-rat TF constructs expressed on HEK293 cells (Homo sapiens, UniProt P13726, K181N); assay: as above; type: cell-based
T14 construct: expressed in transfected cells; host or cells: HEK293
T14 sequence (P13726 33-295 K181N): as the sequence (P13726 33-295) above, with K149N counted along it
Experimental: as §1, §2, §3

[15] = target: T15, human, rat and chimeric human-rat TF constructs expressed on HEK293 cells (Homo sapiens, UniProt P13726, A200N/K201T/N203H); assay: as above; type: cell-based; settings: construct h167-174_r (3), human segment replaced by rat segment
T15 construct: expressed in transfected cells; host or cells: HEK293
T15 sequence (P13726 33-295 A200N/K201T/N203H): as the sequence (P13726 33-295) above, with A168N, K169T, N171H counted along it
Experimental: as §1, §2, §3

T1 sequence (P13726 33-295): as the sequence (P13726 33-295) above

TF-011 [reference compound] was tested, and the “% 25A3 binding” value [1] was “did not reduce”, the “competition with FVII” value [2] was “effectively competed” and the “Antibody binding to TF construct” value [3] was 1 (between 50% and 150%, the antibody was considered a binder (1)). The “Antibody binding to TF construct” value [4] was 1 (between 50% and 150%, the antibody was considered a binder (1)), the “Antibody binding to TF construct” value [5] was 0 (less than 50%, the antibody was considered a non-binder (0)) and the “Antibody binding to TF construct” value [6] was 0 (less than 50%, the antibody was considered a non-binder (0)). For the same substance, the “Antibody binding to TF construct” value [7] was 1 (between 50% and 150%, the antibody was considered a binder (1)), the “Antibody binding to TF construct” value [8] was 0 (less than 50%, the antibody was considered a non-binder (0)) and the “Antibody binding to TF construct” value ([9]; Table 54) was 1 (between 50% and 150%, the antibody was considered a binder (1)). For the same substance, the “Antibody binding to TF construct” value [9] was 1 (between 50% and 150%, the antibody was considered a binder (1)), the “Antibody binding to TF construct” value [10] was 1 (between 50% and 150%, the antibody was considered a binder (1)) and the “Antibody binding to TF construct” value [11] was 0 (less than 50%, the antibody was considered a non-binder (0)). The “Antibody binding to TF construct” value ([12]; Table 54) was 0 (less than 50%, the antibody was considered a non-binder (0)), the “Antibody binding to TF construct” value [12] was 0 (less than 50%, the antibody was considered a non-binder (0)) and the “Antibody binding to TF construct” value [13] was 1 (between 50% and 150%, the antibody was considered a binder (1)). The “Antibody binding to TF construct” value ([14]; construct h146-151_r (1), human segment replaced by rat segment) was 1 (between 50% and 150%, the antibody was considered a binder (1)), the “Antibody binding to TF construct” value ([14]; construct hTF_K149N) was 1 (between 50% and 150%, the antibody was considered a binder (1)) and the “Antibody binding to TF construct” value [15] was 1 (between 50% and 150%, the antibody was considered a binder (1)).
